Data on 1 molecule can be found in patent publication US20240166767A1 (SCIRHOM, published 2024).

The assay concerns the target T1, endogenous human iRhom1 (RH-30 cells) (human, UniProt Q96CC6 1-855).
T1 construct: RH-30 cells are described as endogenously negative for iRhom2 but endogenously expressing iRhom1; also called iRhom1 endogenously expressed by RH-30 cells
T1 sequence: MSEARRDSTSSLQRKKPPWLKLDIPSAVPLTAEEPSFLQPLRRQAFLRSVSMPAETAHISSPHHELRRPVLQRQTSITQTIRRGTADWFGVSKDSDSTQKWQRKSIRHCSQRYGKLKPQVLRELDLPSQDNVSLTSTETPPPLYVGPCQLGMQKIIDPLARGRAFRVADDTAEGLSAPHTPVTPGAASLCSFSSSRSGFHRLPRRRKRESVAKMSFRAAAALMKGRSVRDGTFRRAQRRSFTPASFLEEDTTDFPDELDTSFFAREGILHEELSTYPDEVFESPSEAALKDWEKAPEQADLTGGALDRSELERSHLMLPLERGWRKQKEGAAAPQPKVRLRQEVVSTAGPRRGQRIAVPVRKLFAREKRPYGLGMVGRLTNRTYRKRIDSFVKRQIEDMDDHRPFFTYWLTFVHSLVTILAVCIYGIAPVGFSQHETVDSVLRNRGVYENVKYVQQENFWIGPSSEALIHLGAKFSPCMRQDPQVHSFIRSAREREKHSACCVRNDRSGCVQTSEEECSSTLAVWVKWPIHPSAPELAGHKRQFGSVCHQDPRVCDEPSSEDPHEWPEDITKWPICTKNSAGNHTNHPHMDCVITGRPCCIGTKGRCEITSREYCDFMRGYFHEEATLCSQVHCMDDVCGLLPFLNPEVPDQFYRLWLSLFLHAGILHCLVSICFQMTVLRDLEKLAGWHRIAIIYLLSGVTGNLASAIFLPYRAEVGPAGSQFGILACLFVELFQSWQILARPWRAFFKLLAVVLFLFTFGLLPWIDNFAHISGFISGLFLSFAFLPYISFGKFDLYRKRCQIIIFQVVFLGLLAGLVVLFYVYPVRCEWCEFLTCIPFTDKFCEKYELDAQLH
The assay can be described thus: FACS on RH-30 cells (endogenously negative for iRhom2, endogenously expressing iRhom1). The procedure:
In brief, human RPMI-8226 cells (Deutsche Sammlung von Mikroorganismen und Zellkulturen, Germany), THP-1 cells (American Type Culture Collection, USA) and RH-30 cells (Deutsche Sammlung von Mikroorganismen und Zellkulturen, Germany) were harvested with 10 mM EDTA in PBS, washed and resuspended in FACS buffer (PBS, 3% FBS, 0.05% sodium azide), and seeded in Nunc U-bottom 96-well plates (Thermo Fisher Scientific, USA) at approximately 2×10⁵ cells per well. In order to pellet cells and remove supernatants, the plates were centrifuged at 1,500 rpm and 4° C. for 3 minutes. For primary staining, cells were resuspended in 100 μl per well of either FACS buffer alone (controls) or […] of the antibodies of the invention in FACS buffer and incubated on ice for 1 hour. Afterwards, plates were centrifuged at 1,500 rpm and 4° C. for 3 minutes and washed twice with 200 μl per well of FACS buffer. For secondary staining, cells were spun down and resuspended in 100 μl per well of PE-conjugated goat anti-human IgG F(ab′)2 detection fragment (Dianova, Germany) diluted 1:100 in FACS buffer. Protected from light, the cell suspensions were incubated on ice for 1 hour. […] Finally, cells were resuspended in 150 μl per well of FACS buffer and analyzed using a BD Accuri™ C6 Plus flow cytometer (Becton Dickinson, Germany).

B1: humanized antibody 42-B-02 (antibody, V domains shown)
VH: QVTLRESGPALVKPTQTLTLTCTFSGFSLSTFGRGVGWIRQPPGKALEWLAHIWWDDEKYYNSALKSRLTISKDTSKNQVVLTITNMDPVDTATYYCARIQNYGSNYWYFDVWGQGTLVTVSS
VL: AIQLTQSPSSLSASVGDRVTITCRASSRISYMFWYQQKPGKAPKVLIYDTSNLASGVPSRFSGSGSGTDYTLTISSLQPEDFATYYCQQWNSYPLTFGQGTKLEIK
notes: Tested as whole humanized antibody from transient expression of heavy chain/kappa light chain pairs in CHO cells, detected with anti-human IgG; the general methods speak of human IgG1/Kappa; also called clone 42-B-02
As to B1, the binding result is on record as “no binding (tested: 3 µg/ml)”.
